Changes are numbered by the printed parent chain. In names and notes the source's numbering stands.

The target of this test is T1, human TIM-3 full length, overexpressed on CHO-S cells (human, UniProt Q8TDQ0 22-301).
T1 construct: cells fixed with 4% PFA on plates; also called HAVCR2; Tim-3-overexpressing CHO-S cells
Put plainly: cell-based ELISA on fixed CHO-S cells overexpressing human TIM-3.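 Also: antibody binding at serial dilutions to PFA-fixed cells for 1 h at 37 °C, read as TMB colour signal after acid stop.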 For orientation: ELISA stands for enzyme-linked immunosorbent assay.

Experimental: The binding activity of anti-TIM-3 antibody to CHO-S cells overexpressing human TIM-3 is detected via a binding assay. […] TIM-3-overexpressing cells were immobilized on a 96-well plate. After the addition of the antibody, signal strength was used to determine the binding activity of the antibody to Tim-3-overexpressing CHO-S cells.
The cells were inoculated on a 96-well plate with 4E5/ml density, 100 μg/well, and cultured overnight. Supernatant was discarded and the plate was washed three times with PBS. 100 μl/well of 4% PFA was added into each well, and the plate was fixed at room temperature for 30 minutes. The plate was washed three times with PBS. The liquid was discarded, and 200 μl of blocking solution (5% skim milk (Guangming skim milk powder) diluted with PBS) was added to each well. The plate was incubated at 37° C. for 2.5 h. Then the blocking solution was discarded, and the plate was washed 5 times with PBST buffer (pH 7.4 PBS containing 0.05% Tween-20). 50 μl/well of various concentrations of antibodies to be tested (antibody via hybridoma purification or humanized antibody), diluted with sample buffer, were added into each well, and incubated at 37° C. for 1 h. […] The plate was washed 6 times with PBST, and 100 μl/well TMB chromogenic substrates (KPL, Cat, No., 52-00-03) was added to each well. The plate was incubated at room temperature for 5-15 min. Reaction was stopped by the addition of 50 μl of 1 M H₂SO₄ to each well.

B1: h1701-005 (antibody, human IgG4 S228P, kappa, V domains shown)
VH: QVQLVQSGAEVKKPGASVKVSCKASGYTFTDYYMNWVRQAPGQGLEWMGDIIPNNGGSKYNQKFKDRVTMTTDTSTSTAYMELRSLRSDDTAVYYCARWGYGSSYRWFDYWGQGTLVTVSS
VL: DIQMTQSPSSLSASVGDRVTITCLASQPIGIWLAWYQQKPGKAPKLLIYAATSLADGVPSRFSGSGSGTDFTFTISSLQPEDIATYYCQQLYSSPWTFGGGTKVEIKR
notes: Humanized IgG4 (S228P)/kappa
As to B1, the EC50 (commonly the concentration that produces a half-maximal response) was 602 pM.

B2: h1701-013 (antibody, human IgG4 S228P, kappa, V domains shown)
VH: B1 VH with R38K, M48I, D89E, R98T
VL: B1 VL
notes: Humanized IgG4 (S228P)/kappa
As for B2, the EC50 came out at 199 pM.

B3: h1701-012 (antibody, human IgG4 S228P, kappa, V domains shown)
VH: B1 VH with M48I, R98T
VL: B1 VL with A43S
notes: Humanized IgG4 (S228P)/kappa
The molecule B3 gave an EC50 of 221 pM.

B4: h1701-014 (antibody, human IgG4 S228P, kappa, V domains shown)
VH: B1 VH with R38K, M48I, D89E, R98T
VL: B1 VL with A43S
notes: Humanized IgG4 (S228P)/kappa
As to B4, it took 124 pM to reach a half-maximal effect (EC50).

B5: h1701-015 (antibody, human IgG4 S228P, kappa, V domains shown)
VH: B1 VH with M48I, G49A, V68A, M70L, R98T
VL: B1 VL
notes: Humanized IgG4 (S228P)/kappa
In the case of B5, the EC50 amounted to 265 pM.

B6: h1701-017 (antibody, human IgG4 S228P, kappa, V domains shown)
VH: B1 VH with R38K, M48I, G49A, V68A, M70L, D89E, R98T
VL: B1 VL
notes: Humanized IgG4 (S228P)/kappa
In the case of B6, the EC50 stood at 105 pM.

B7: h1701-006 (antibody, human IgG4 S228P, kappa, V domains shown)
VH: B1 VH
VL: B1 VL with A43S
notes: Humanized IgG4 (S228P)/kappa
B7 displayed an EC50 of 735 pM.

B8: h1701-011 (antibody, human IgG4 S228P, kappa, V domains shown)
VH: B1 VH with M48I, R98T
VL: B1 VL
notes: Humanized IgG4 (S228P)/kappa
For B8, the half-maximal effective concentration (EC50) was 188 pM.

B9: h1701-008 (antibody, human IgG4 S228P, kappa, V domains shown)
VH: B1 VH with M48I
VL: B1 VL with A43S
notes: Humanized IgG4 (S228P)/kappa
Take B9: the EC50 came out at 2420 pM.

B10: h1701-018 (antibody, human IgG4 S228P, kappa, V domains shown)
VH: B1 VH with R38K, M48I, G49A, V68A, M70L, D89E, R98T
VL: B1 VL with A43S
notes: Humanized IgG4 (S228P)/kappa
As for B10, the EC50 turned out to be 87 pM.

B11: h1799-012 (antibody, human IgG4 S228P, kappa)
heavy: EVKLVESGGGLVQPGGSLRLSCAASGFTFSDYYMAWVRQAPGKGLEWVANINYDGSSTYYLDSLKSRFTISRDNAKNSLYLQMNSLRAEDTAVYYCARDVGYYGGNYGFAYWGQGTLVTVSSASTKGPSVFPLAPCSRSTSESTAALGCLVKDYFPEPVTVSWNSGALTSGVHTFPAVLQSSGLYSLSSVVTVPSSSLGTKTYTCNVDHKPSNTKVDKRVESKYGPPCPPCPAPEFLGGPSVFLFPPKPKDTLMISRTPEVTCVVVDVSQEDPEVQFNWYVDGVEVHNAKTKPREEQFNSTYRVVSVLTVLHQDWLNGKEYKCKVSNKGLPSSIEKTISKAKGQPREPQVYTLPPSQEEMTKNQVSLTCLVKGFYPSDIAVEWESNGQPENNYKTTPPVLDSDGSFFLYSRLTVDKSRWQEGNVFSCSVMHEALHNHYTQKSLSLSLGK
light: DIQMTQSPSSLSASVGDRVTITCRASDNIYSYLAWYQQKPGKAPQLLVYNAKTLAEGVPSRFSGSGSGTDFTLTISSLQPEDFATYYCQQHYGSPLTFGQGTKLEIKRTVAAPSVFIFPPSDEQLKSGTASVVCLLNNFYPREAKVQWKVDNALQSGNSQESVTEQDSKDSTYSLSSTLTLSKADYEKHKVYACEVTHQGLSSPVTKSFNRGEC
notes: Humanized IgG4 (S228P)/kappa
B11 had an EC50 of 158 pM.

B12: h1799-013 (antibody, human IgG4 S228P, kappa)
heavy: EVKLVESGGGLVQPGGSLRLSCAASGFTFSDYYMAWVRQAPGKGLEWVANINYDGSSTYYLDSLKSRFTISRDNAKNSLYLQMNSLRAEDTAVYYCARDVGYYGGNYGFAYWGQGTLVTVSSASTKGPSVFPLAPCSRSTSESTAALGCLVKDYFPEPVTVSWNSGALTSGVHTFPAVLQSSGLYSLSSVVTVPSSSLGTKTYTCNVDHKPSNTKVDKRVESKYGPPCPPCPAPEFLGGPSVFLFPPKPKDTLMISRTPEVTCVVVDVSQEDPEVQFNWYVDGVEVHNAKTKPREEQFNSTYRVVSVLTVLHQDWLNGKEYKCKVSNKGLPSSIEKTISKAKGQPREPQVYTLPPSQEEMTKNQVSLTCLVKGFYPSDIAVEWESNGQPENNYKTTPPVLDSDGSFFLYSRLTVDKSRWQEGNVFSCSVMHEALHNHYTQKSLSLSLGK
light: B11 light with A43S
notes: Humanized IgG4 (S228P)/kappa
As to B12, a half-maximal effect (EC50) was put at 139 pM.

B13: h1799-009 (antibody, human IgG4 S228P, kappa)
heavy: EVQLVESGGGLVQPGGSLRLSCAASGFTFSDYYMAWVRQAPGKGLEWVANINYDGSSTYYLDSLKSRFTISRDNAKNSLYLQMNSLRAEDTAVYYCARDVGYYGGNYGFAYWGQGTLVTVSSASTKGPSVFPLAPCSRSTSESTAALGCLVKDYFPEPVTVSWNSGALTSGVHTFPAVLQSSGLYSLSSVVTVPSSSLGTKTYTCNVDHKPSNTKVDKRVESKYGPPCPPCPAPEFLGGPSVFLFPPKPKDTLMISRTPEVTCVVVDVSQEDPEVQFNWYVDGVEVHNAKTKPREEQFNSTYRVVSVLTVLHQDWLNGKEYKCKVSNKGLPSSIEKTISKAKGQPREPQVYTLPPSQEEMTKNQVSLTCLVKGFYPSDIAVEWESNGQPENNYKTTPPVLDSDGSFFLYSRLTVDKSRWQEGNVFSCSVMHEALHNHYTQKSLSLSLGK
light: B11 light with A43S, T85S
notes: Humanized IgG4 (S228P)/kappa
Molecule B13 returned a concentration for a half-maximal effect (EC50) of 76 pM.

B14: h1799-008 (antibody, human IgG4 S228P, kappa)
heavy: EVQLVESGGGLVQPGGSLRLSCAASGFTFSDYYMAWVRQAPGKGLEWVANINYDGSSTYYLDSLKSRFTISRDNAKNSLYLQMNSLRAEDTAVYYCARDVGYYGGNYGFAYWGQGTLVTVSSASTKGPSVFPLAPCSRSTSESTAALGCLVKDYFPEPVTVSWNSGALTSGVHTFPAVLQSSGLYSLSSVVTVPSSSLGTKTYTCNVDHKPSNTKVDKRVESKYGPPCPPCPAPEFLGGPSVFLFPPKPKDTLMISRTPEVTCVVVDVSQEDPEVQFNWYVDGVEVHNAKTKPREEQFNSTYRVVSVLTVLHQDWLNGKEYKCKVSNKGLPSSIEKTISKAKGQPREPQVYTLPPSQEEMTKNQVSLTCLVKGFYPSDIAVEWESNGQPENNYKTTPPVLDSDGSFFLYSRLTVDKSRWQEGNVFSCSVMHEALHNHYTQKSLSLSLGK
light: B11 light with A43S
notes: Humanized IgG4 (S228P)/kappa
Molecule B14 gave an EC50 of 67 pM.

B15: h1799-011 (antibody, human IgG4 S228P, kappa)
heavy: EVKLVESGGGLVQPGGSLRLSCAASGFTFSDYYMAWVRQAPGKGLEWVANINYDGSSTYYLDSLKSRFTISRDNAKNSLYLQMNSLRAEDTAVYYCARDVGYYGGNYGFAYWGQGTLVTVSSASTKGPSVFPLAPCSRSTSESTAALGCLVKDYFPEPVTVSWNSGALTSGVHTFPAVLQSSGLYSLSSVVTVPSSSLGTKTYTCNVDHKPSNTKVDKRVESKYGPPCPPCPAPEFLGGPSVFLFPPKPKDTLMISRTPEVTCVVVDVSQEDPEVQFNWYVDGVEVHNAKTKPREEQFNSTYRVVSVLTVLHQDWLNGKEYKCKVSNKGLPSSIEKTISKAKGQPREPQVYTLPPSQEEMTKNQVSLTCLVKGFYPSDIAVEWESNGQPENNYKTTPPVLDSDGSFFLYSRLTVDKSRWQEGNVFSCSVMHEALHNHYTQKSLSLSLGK
light: B11 light with Q45K
notes: Humanized IgG4 (S228P)/kappa
Regarding B15, the midpoint of the response, the EC50, lay at 114 pM.

B16: h1799-007 (antibody, human IgG4 S228P, kappa)
heavy: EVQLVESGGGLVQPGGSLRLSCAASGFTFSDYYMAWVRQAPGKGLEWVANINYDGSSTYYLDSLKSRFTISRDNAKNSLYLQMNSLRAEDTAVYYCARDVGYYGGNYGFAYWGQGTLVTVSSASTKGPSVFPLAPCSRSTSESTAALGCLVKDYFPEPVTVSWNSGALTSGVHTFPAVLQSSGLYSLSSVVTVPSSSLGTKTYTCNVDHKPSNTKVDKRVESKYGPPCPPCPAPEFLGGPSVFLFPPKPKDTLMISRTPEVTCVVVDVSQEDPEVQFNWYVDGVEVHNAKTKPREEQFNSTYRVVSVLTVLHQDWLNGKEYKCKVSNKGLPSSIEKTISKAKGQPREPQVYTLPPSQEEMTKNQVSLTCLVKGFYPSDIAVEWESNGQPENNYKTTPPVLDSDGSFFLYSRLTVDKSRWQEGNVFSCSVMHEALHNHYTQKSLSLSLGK
light: B11 light
notes: Humanized IgG4 (S228P)/kappa
Consider B16, for which the response was half-maximal at 109 pM (EC50).

B17: h1799-014 (antibody, human IgG4 S228P, kappa)
heavy: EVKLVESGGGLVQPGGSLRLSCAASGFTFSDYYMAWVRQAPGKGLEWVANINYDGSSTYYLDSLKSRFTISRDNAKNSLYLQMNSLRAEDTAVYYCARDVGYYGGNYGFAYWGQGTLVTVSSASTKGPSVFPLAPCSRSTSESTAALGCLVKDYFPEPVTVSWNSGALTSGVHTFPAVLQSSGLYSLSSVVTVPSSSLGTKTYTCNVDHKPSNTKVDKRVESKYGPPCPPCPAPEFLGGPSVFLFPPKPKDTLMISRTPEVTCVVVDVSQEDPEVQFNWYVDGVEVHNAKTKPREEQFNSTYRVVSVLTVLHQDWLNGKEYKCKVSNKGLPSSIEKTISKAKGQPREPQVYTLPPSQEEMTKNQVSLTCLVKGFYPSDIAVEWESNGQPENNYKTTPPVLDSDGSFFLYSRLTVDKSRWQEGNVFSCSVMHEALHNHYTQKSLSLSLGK
light: B11 light with A43S, T85S
notes: Humanized IgG4 (S228P)/kappa
Consider B17, for which the EC50 was 116 pM.

The record behind these values is patent US20190375839A1 (JIANGSU HENGRUI MEDICINE, published 2019).
